Consider two molecules from patent US12497446B2, “Tetranectin-targeting monoclonal antibodies to fight against lethal sepsis and other pathologies” (The Feinstein Institutes For Medical Research, priority 2019, dated 2025).

The test system of assay [1] is Balb/C mice subjected to CLP sepsis. Nature of the assay: Animal model of lethal sepsis (CLP), animal survival. In kind it is in vivo, mouse. The settings on record: for protection against lethal sepsis: i.p., 2 h post onset. The method, then:
This study was conducted in accordance with policies of the NIH Guide for the Care and Use of Laboratory Animals and approved by the IACUC of the Feinstein Institute for Medical Research, Manhasset, New York, USA. To evaluate the role of TN in lethal sepsis, Balb/C mice (male, 7-8 weeks, 20-25 g) were subjected to lethal endotoxemia or sepsis induced by cecal ligation and puncture (CLP) as previously described. Briefly, the cecum of Balb/C mice was ligated at 5.0 mm from the cecal tip, and then punctured once with a 22-gauge needle. At 30 min post CLP, all animals were given a subcutaneous dosing of imipenem/cilastatin (0.5 mg/mouse) (Primaxin, Merck & Co., Inc., West Point, Pa.), and resuscitation with normal sterile saline solution (20 ml/kg). Recombinant TN or anti-TN polyclonal or monoclonal IgGs were intraperitoneally administered into endotoxemic or septic mice at indicated doses and time points, and animal survival rates were monitored for up to two weeks. To evaluate the role of TN in lethal sepsis, a few breeding pairs of the heterozygous TN (also called “CLCE3B”)-KO mice were obtained from the Jackson Laboratory (Stock No. 027554, Bar Harbor, ME, USA), and bred to produce homozygous TN KO as well as wild-type littermates. Age- and sex-matched wild-type (WT) or TN knockout (KO) C57/B6 mice were then used to induce CLP sepsis via identical procedures, and animal survival rates were compared for more than two weeks.

Assay [2] relates to Balb/C mice subjected to lethal endotoxemia. The assay can be described thus: Animal model of lethal endotoxemia (LPS), animal survival. In kind it is in vivo, mouse. The settings on record: i.p., 2 h post onset. Here is the method:
This study was conducted in accordance with policies of the NIH Guide for the Care and Use of Laboratory Animals and approved by the IACUC of the Feinstein Institute for Medical Research, Manhasset, New York, USA. To evaluate the role of TN in lethal sepsis, Balb/C mice (male, 7-8 weeks, 20-25 g) were subjected to lethal endotoxemia or sepsis induced by cecal ligation and puncture (CLP) as previously described. Briefly, the cecum of Balb/C mice was ligated at 5.0 mm from the cecal tip, and then punctured once with a 22-gauge needle. At 30 min post CLP, all animals were given a subcutaneous dosing of imipenem/cilastatin (0.5 mg/mouse) (Primaxin, Merck & Co., Inc., West Point, Pa.), and resuscitation with normal sterile saline solution (20 ml/kg). Recombinant TN or anti-TN polyclonal or monoclonal IgGs were intraperitoneally administered into endotoxemic or septic mice at indicated doses and time points, and animal survival rates were monitored for up to two weeks. To evaluate the role of TN in lethal sepsis, a few breeding pairs of the heterozygous TN (also called “CLCE3B”)-KO mice were obtained from the Jackson Laboratory (Stock No. 027554, Bar Harbor, ME, USA), and bred to produce homozygous TN KO as well as wild-type littermates. […]

B1: human TN: eukaryote-derived recombinant human tetranectin expressed in HEK293 kidney cells (ACROBiosystems) (protein, UniProt P05452 22-202, looked up)
Tetranectin: EPPTQKPKKIVNAKKDVVNTKMFEELKSRLDTLAQEVALLKEQQALQTVCLKGTKVHMKCFLAFTQTKTFHEASEDCISRGGTLGTPQTGSENDALYEYLRQSVGNEAEIWLGLNDMAAEGTWVDMTGARIAYKNWETEITAQPDGGKTENCAVLSGAANGKWFDKRCRDQLPYICQFGIV
Turning to B1, in assay [1], the “protection against lethal sepsis” value is “reproducible and dose-dependent protection”. Besides, in assay [2], the “protection against lethal endotoxemia” value is “reproducible and dose-dependent protection”.

B2: murine TN: prokaryotes-derived (E. coli) recombinant murine tetranectin (protein)
chain: ESPTPKAKKAANAKKDLVSSKMFEELKNRMDVLAQEVALLKEKQALQTVCLKGTKVNLKCLLAFTQPKTFHEASEDCISQGGTLGTPQSELENEALFEYARHSVGNDANIWLGLNDMAAEGAWVDMTGGLLAYKNWETEITTQPDGGKAENCAALSGAANGKWFDKRCRDQLPYICQFAIV
With B2, the “protection in sepsis at sub-physiological doses” value in assay [1] (0.1 mg/kg) is on record as “conferred reproducible protection”. Moreover, the “protection in sepsis at super-physiological doses” value in assay [1] (1.0 mg/kg) was “not associated with any protective effect”. Further, the “protection against lethal sepsis” value in assay [1] was “reproducible and dose-dependent protection”. Also, the “protection against lethal endotoxemia” value in assay [2] is “reproducible and dose-dependent protection”.
